PMC9851726

Biological target: human complement C3b (human) (UniProt P01024)
UniProt P01024, sequence (P01024 23-667, chain 1 of 2): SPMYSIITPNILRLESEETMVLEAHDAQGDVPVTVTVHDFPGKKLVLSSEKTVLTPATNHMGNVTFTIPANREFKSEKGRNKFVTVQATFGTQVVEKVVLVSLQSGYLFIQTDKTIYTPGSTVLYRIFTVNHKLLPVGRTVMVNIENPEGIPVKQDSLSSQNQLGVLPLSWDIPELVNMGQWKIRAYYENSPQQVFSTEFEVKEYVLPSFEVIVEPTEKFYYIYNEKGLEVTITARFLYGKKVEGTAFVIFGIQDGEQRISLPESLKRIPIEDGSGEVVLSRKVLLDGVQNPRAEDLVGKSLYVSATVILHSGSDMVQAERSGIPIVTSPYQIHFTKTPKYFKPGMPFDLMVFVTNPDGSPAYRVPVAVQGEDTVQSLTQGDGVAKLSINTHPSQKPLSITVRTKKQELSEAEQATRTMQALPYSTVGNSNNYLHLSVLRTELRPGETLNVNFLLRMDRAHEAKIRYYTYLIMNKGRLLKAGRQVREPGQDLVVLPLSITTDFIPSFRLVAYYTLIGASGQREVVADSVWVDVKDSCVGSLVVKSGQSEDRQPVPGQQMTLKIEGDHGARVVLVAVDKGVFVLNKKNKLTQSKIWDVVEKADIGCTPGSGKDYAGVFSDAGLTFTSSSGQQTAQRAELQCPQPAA
UniProt P01024, sequence (P01024 749-1663, chain 2 of 2): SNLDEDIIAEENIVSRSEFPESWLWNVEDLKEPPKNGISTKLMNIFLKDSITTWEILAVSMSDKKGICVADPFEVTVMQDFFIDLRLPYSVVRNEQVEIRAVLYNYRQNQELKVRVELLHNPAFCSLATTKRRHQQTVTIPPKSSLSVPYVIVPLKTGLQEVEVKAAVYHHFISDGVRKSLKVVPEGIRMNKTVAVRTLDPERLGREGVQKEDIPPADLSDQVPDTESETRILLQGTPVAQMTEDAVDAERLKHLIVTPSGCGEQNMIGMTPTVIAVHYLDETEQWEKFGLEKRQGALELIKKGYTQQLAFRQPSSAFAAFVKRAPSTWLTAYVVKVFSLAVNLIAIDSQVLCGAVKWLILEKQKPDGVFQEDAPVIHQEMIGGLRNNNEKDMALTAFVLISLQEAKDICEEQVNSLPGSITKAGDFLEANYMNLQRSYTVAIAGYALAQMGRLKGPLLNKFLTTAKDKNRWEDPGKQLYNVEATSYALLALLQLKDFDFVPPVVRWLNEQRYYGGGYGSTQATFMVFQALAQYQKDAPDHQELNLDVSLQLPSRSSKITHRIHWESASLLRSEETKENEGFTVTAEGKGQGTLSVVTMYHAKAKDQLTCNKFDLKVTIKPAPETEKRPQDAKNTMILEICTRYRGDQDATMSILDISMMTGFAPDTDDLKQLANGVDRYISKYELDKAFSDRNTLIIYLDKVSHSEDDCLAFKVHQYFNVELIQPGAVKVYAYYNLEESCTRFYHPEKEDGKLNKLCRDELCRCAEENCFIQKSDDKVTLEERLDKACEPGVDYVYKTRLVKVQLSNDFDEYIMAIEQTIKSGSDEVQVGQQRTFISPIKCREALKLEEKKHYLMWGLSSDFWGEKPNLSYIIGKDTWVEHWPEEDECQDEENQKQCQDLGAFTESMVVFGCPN

“recombinant SARS-CoV-2 ORF8 protein, His-tagged (from UniProt P0DTC8 18-121) (natural protein)” showed an IC50 of inhibition of normal human serum-induced hemolysis of rabbit erythrocytes, ORF8 39 nM to 5000 nM of 2.3 µM.
